Test results reported in US20130035249A1.

Experiments:
[1] = target: full-length human CEA (human) (UniProt P06731); assay: binding to CHO cells co-expressing full-length CEA and the CEA splice variant (method of the KD not described)
[2] = target: full-length human CEA (human) (UniProt P06731); assay: binding to CHO cells expressing full-length CEA (method of the KD not described)

MEDI-565 (bispecific antibody)
Kd [1]: 5.6 nM
Kd [2]: 5 nM
